# Laboratory results taken from patent US9322042B2, “Thermostable cellulases, and mutants thereof, capable of hydrolyzing cellulose in ionic liquid” (The Regents of the University of California, priority 2009, dated 2016).
# Where a chain is given by its changes, count along the chain named. Numbers in names are those of the source.
# B1: P2H8: T. maritima Cel5A cellulase mutant with D40N and L231R; SEQ ID NO: 2 (protein, listed as Thermotoga maritima)
# chain: MGVDPFERNKILGRGINIGNALEAPNEGDWGVVIKDEFFNIIKEAGFSHVRIPIRWSTHAYAFPPYKIMDRFFKRVDEVINGALKRGLAVVINIHHYEELMNDPEEHKERFLALWKQIADRYKDYPETLFFEILNEPHGNLTPEKWNELLEEALKVIRSIDKKHTIIIGTAEWGGISALEKLSVPKWEKNSIVTIHYYNPFEFTHQGAEWVEGSEKWLGRKWGSPDDQKHRIEEFNFIEEWSKKNKRPIYIGEFGAYRKADLESRIKWTSFVVREMEKRRWSWAYWEFCSGFGVYDTLRKTWNKDLLEALIGGDSIE
# B2: P4B5: T. maritima Cel5A cellulase mutant with K155N; SEQ ID NO: 4 (protein, listed as Thermotoga maritima)
# chain: B1 chain with N40D, K155N, R231L
# B3: P15G2: T. maritima Cel5A cellulase mutant with K35N, E209G and A256T; SEQ ID NO: 8 (protein, listed as Thermotoga maritima)
# chain: B1 chain with K35N, N40D, E209G, R231L, A256T
# B4: P15H11: T. maritima Cel5A cellulase mutant with S177R; SEQ ID NO: 22 (protein, listed as Thermotoga maritima)
# chain: B1 chain with N40D, S177R, R231L
# B5: P13F6: T. maritima Cel5A cellulase mutant with E132D, N140S, E202K and K304N; SEQ ID NO: 6 (protein, listed as Thermotoga maritima)
# chain: B1 chain with N40D, E132D, N140S, E202K, R231L, K304N
# B6: P3D7: T. maritima Cel5A cellulase mutant with E308K; SEQ ID NO: 3 (protein, listed as Thermotoga maritima)
# chain: B1 chain with N40D, R231L, E308K
# B7: P15B10: T. maritima Cel5A cellulase mutant with D29V and I92F; SEQ ID NO: 7 (protein, listed as Thermotoga maritima)
# chain: B1 chain with D29V, N40D, I92F, R231L
# B8: P8E4: T. maritima Cel5A cellulase mutant with A113V; SEQ ID NO: 5 (protein, listed as Thermotoga maritima)
# chain: B1 chain with N40D, A113V, R231L
# B9: P1E3: T. maritima Cel5A cellulase mutant with E98A and E106D; SEQ ID NO: 1 (protein, listed as Thermotoga maritima)
# chain: B1 chain with N40D, E98A, E106D, R231L
# Assay: Beta-1,4-endoglucanase (CMCase) activity assay of Cel5ATm mutants
# Type: biochemical
# Procedure: CMCase activity assay is carried out in 50 mM Bis-Tris-HCl buffer (pH 6.5) containing 1% carboxylmethylcellulose (CMC) and incubated at 75° C. for 30 min. Reducing sugars are analyzed by DNS method as described in Xiao Z, Storms R and Tsang A (2005) “Microplate-based carboxymethylcellulose assay for endoglucanase activity”, Anal. Biochem. 342: 176-178. Cellobiose is used as reducing sugars standard. 1 U is defined as enzyme amount to produce 1 μmol reducing sugars in one minute at optimal conditions.
# 5 μl supernatant is mixed with 35 μl sterile ddH2O and 40 μl 2% CMC in 100 mM Bis-Tris-HCl (pH 6.5) in 96-well PCR plates. These plates are incubated in thermocyclers at 75° C. for 30 min. 80 μl of DNS reagent is added (Ref 1), mixed and incubated at 95° C. for 5 min. The solution is cooled to 4° C. and transferred 100 μl of the products into 96-well plate for reading the ABS at 540 nm.
# Clones from the mutant library are analyzed as described for the wild-type of Cel5ATm except that after transferring normal cultures into autoinduction medium, normal culture plates are added by sterile glycerol to 10%, mixed and stored at −80° C. for future investigation. The clones with endoglucanase activity larger than 120% of the wild-type are selected to express the enzymes in 5 ml culture and purified by Ni-NTA columns. Activity improvements are confirmed by detection of their specific activity (U/mg) and plasmids sequencing.
row,Molecule,improvement of cellulase activity over the wild-type T. maritima cellulase
1,B1,about 40.56%
2,B2,about 33.02%
3,B3,about 66.92%
4,B4,about 35.98%
5,B5,about 68.51%
6,B6,about 78.76%
7,B7,about 33.79%
8,B8,about 49.06%
9,B9,about 31.77%
